# Data taken from patent publication US20210332112A1 (University of Texas, published 2021).
# Target: pertussis toxin (Bordetella pertussis, UniProt P04977 35-269; P04978 28-226; P04979 29-227; P0A3R5 43-152; P04981 35-133)
# Test: ELISA, plate coated with pertussis toxin, antibody titrated, detection with goat anti-human kappa constant domain-HRP [panel C]
binder,measurement,value
"hu1B7 antibody (antibody, V domains shown) VH: EVQLVESGGGLVQPGGSLRLSCAASGYKFTSYWMHWVRQAPGKGLEWVGNIFPGSGSTNYDEKFNSRFTISVDTSKNTAYLQMNSLRAEDTAVYYCTRWLSGAYFDYWGQGTLVTVSS VL: DIQMTQSPSSLSASVGDRVTITCSASSSVSFMYWYQQKPGKAPKLLIYLTSNLPSGVPSRFSGFGSGTDYTLTISSLQPEDFATYYCQQWSSHPPTFGQGTKVEIK",EC50 (read off the curve),~0.05 mg/L
